Laboratory results taken from patent US20180112001A1 (Regeneron, published 2018).
Like-named read-outs stand apart in the source and are kept apart here.

T1: soluble monomeric human MUC16, truncated format encompassing the last five SEA domains of Mucin-16 (human)
T1 construct: also called hMUC16.mmh; MUC16 "nub"
T1 chain: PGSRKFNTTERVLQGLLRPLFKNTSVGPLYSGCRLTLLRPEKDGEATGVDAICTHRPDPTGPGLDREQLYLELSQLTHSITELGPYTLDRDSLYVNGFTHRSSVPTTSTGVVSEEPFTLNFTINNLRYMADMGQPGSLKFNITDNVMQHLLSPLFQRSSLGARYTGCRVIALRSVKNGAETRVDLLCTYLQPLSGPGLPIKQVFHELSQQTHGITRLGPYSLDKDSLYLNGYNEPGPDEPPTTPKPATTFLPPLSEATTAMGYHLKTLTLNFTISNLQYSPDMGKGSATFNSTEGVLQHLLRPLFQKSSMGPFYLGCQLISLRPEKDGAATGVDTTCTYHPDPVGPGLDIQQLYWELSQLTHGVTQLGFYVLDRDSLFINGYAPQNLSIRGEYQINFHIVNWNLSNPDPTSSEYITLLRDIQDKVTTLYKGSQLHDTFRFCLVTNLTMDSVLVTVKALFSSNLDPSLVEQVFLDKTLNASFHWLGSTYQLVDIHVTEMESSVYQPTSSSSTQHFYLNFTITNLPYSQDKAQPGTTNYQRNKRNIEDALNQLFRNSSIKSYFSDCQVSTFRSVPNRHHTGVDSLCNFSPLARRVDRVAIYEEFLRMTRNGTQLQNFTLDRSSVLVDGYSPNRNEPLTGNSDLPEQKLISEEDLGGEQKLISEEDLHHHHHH


How the values were obtained:
[1] = molecular target: T2, human MUC16 (mucin 16), endogenously expressed on cells (human); test: MSD electrochemiluminescence cell binding; RLU ratio OVCAR-3/SK-OV-3; Ab 1.9 nM
T2 construct: Endogenous MUC16 on OVCAR-3 / OVCAR3-Luc / PEO-1 / HPAC cells; also called hMUC16

[2] = molecular target: T2, human MUC16 (mucin 16), endogenously …; test: MSD electrochemiluminescence cell binding; RLU ratio OVCAR-3/SK-OV-3; Ab 16.7 nM
[3] = molecular target: T1, soluble monomeric human MUC16, …; test: SPR Biacore, antibody captured, soluble monomeric hMUC16.mmh injected, 25C
[4] = molecular target: T1, soluble monomeric human MUC16, …; test: as above

Binder | Ratio: anti-MUC16 Binding OVCAR-3/SK-OV-3 [1] | Ratio: anti-MUC16 Binding OVCAR-3/SK-OV-3 [2] | Kd [3] | koff [3] | kon [3] | t1/2 [3] | binding result [4] | Kd [4] | koff [4] | kon [4] | t ½ [4]
H1H8790P (antibody, human IgG1, V domains shown, Human IgG1 (H1H)) VH: EVQLVESGGGLVQPGGSLRLSCEASGFTFSNYAMSWVRQAPGKGLEWVSGMSGSGTYPYYADSVKGRFTISRDNSKNMLYLQMNSLRVKDTAVYYCAKDGVDTAMILDTFDLWGQGTMVTVSS VL: not shown | 8 ratio | 3 ratio | 7.53 nM | 0.000761 s⁻¹ | 101000 M⁻¹ s⁻¹ | 15 min | – | – | – | – | –
H1H8755P (antibody, human IgG1, V domains shown, Human IgG1 (H1H)) VH: EVQLVESGGGLVQPGRSLRLSCAASGFTFNDYAMHWVRQSPGKGLEWVSGIDWNGGSIDYADSVKGRFTISRDTAKNSLYLQMNSLKVEDTALYYCAKDIGHWNYIGGMDVWGQGTTVTVSS VL: DIQMTQSPSSLSASVGDRVTITCRASQSINIYLNWYQQKPGKAPKFLIYAASSLQTGVPSRFSGSGSGTDFTLTISSLEPEDFATYYCQHSYSTPPITFGQGTRLEIK | 13 ratio | 5 ratio | 0.286 nM | 0.000149 s⁻¹ | 522000 M⁻¹ s⁻¹ | 77 min | – | – | – | – | –
H1H8794P (antibody, V domains shown, Human IgG1 (H1H)) VH: QVQLVESGGGLVKPGGSLRLSCAASGFTFRDYSMSWIRQAPGKGLEWVSYVTFFNSAIYYADSVKGRFTISRDNAKNSLYLQMNSLRAEDTAVYYCAREREPIVGGFDYWGQGTLVTVSS VL: DIQMTQSPSSLSASVGDRVTITCRASQSINSYLNWYQQKPGKAPKLLIYAASSLQGGVPSRFSGGGSGTDFTLTITSLQPEDFATFYCQQSYSSPPITFGQGTRLEIK | 8 ratio | 3 ratio | 0.771 nM | 0.000279 s⁻¹ | 362000 M⁻¹ s⁻¹ | 41 min | – | – | – | – | –
H1H9525N (antibody, human IgG1, V domains shown, Human IgG1 Fc version) VH: QVQLQQWGAGLLKPSETLSLTCAVYGGSFSGYYWSWIRQPPGKGLEWIGEINHSGKTTYSPSLKSRVTISVDTSKSQFSLKLSSVTAADTAVYYCARQGLNYAIFDYWGQGTLVTVSS VL: not shown | 4 ratio | 21 ratio | – | – | – | – | – | – | – | – | –
H1H9524N (antibody, human IgG1, V domains shown, Human IgG1 Fc version) VH: QVQLQQWGAGLLKPSETLSLTCAVYGGSFSDYYWSWIRQPPGKGLEWIGEINHRGKTNYNPSLKSRVSISVDPSKNQFSLKLSSVTAADTAVYYCARQGWNYAIFDYWGQGILVPVSS VL: not shown | 20 ratio | 48 ratio | – | – | – | – | – | – | – | – | –
H1H8770P (antibody, human IgG1, V domains shown, Human IgG1 (H1H)) VH: QVQLVESGGGVVQPGRSLRLSCAASGFTFSDHGMHWVRQAPGKGLEWVAVISYHGSNKHYADSVKGRFTISRDNSKNALYLQMNSLRPEDTAMYYCAKDGYDFWNGYSLFDYWGQGTLVTVSS VL: DIQMTQSPSSLSASVGDRVTITCRASQSISNYLNWYQQKPGKAPKLLIYTASNLLSGVPSRFSGSGSGTDFTLTISSLQPEDFATYYCQQSYSTPPITFGQGTKLEIK | 9 ratio | 3 ratio | 1.25 nM | 0.000308 s⁻¹ | 247000 M⁻¹ s⁻¹ | 38 min | – | – | – | – | –
H1H8783P (antibody, human IgG1, V domains shown, Human IgG1 (H1H)) VH: QVQLVESGGGVVQPGRSLRLSCAASGFTFSDHAMHWVRQAPGKGLEWVAVISYHGTDKQYGDSVKGRFTISRDNSKNALYLQMNSLRPEDTAMYYCAKDGYDFWNAYSLFDYWGQGTLVTVSS VL: DIQMTQSPSSLSASVGDRVTITCRASQSISNYLNWYQQKPGKAPKLLIYTASSLLSGVPSRFSGSGSGTDFTLTISSLQPEDFATYYCQQSYSTPPITFGQGTRLEIK | 11 ratio | 4 ratio | 0.614 nM | 0.000107 s⁻¹ | 174000 M⁻¹ s⁻¹ | 108 min | – | – | – | – | –

Second part, the binder after the results:

Ratio: anti-MUC16 Binding OVCAR-3/SK-OV-3 [1] | Ratio: anti-MUC16 Binding OVCAR-3/SK-OV-3 [2] | Kd [3] | koff [3] | kon [3] | t1/2 [3] | binding result [4] | Kd [4] | koff [4] | kon [4] | t ½ [4] | Binder
89 ratio | 26 ratio | – | – | – | – | – | – | – | – | – | H2M9538N (antibody, V domains shown) VH: QVQLQESGPGLVKPSETLSLTCTVSGGSISSYYWSWIRQPPGKGLEWIGYIYYSGSTNYNPSLKSRVTISVDTSKNQFSLKLSSVTAADTAVYYCARKKLVFDYWGQGTLVTVSS VL: not shown
12 ratio | 13 ratio | – | – | – | – | – | – | – | – | – | H1H9538N (antibody, V domains shown) VH: QVQLQESGPGLVKPSETLSLTCTVSGGSISSYYWSWIRQPPGKGLEWIGYIYYSGSTNYNPSLKSRVTISVDTSKNQFSLKLSSVTAADTAVYYCARKKLVFDYWGQGTLVTVSS VL: not shown
153 ratio | 120 ratio | – | – | – | – | no binding | – | – | – | – | H1M9528N (antibody, mouse IgG1, V domains shown, Mouse IgG1 constant region (H1M)) VH: QMQLQESGPGLVKPSETLSLTCTVSGGSISSYYWNWIRQPPGKGLEWIGYIYYSGNNFNPSLKSRVTISVDTSKNQFSLKLSSVTAADTAVYYCARAFHWNYEFDYWGQGTLVTVSS VL: EIVLTQSPGTLSLSPGERATLSCRASQSVSNNYLAWYQQKPGQAPRLLLYGASSRTTDIPDRFSGSGSGTDFTLTISRLEPEDFAVYYCQQYDNSPLTFGGGTKVEIR
41 ratio | 18 ratio | – | – | – | – | – | – | – | – | – | H1H9528N (antibody, human IgG1, V domains shown, Human IgG1 Fc version) VH: QMQLQESGPGLVKPSETLSLTCTVSGGSISSYYWNWIRQPPGKGLEWIGYIYYSGNNFNPSLKSRVTISVDTSKNQFSLKLSSVTAADTAVYYCARAFHWNYEFDYWGQGTLVTVSS VL: EIVLTQSPGTLSLSPGERATLSCRASQSVSNNYLAWYQQKPGQAPRLLLYGASSRTTDIPDRFSGSGSGTDFTLTISRLEPEDFAVYYCQQYDNSPLTFGGGTKVEIR
77 ratio | 29 ratio | – | – | – | – | – | 1.72 nM | 9.09e-05 s⁻¹ | 53000 M⁻¹ s⁻¹ | 127 min | H1M7137N (antibody, mouse IgG1, V domains shown, Mouse IgG1 constant region (H1M)) VH: QVQLQESGPGLVKPSETLSLTCTVSGGAINTYYWSWIRQPPGKGLEWIGYIYYRGNTNYNPSLRSRVTISVDTSKNQFFLKLRSVTVADSAVYFCARGWNYRAEYFQHWGQGTVVTVSS VL: not shown
81 ratio | 57 ratio | – | – | – | – | no binding | – | – | – | – | H3M9524N (antibody, mouse IgG3, V domains shown, Mouse IgG3 constant region (H3M)) VH: QVQLQQWGAGLLKPSETLSLTCAVYGGSFSDYYWSWIRQPPGKGLEWIGEINHRGKTNYNPSLKSRVSISVDPSKNQFSLKLSSVTAADTAVYYCARQGWNYAIFDYWGQGILVPVSS VL: not shown
137 ratio | 51 ratio | – | – | – | – | no binding | – | – | – | – | H3M9525N (antibody, mouse IgG3, V domains shown, Mouse IgG3 constant region (H3M)) VH: QVQLQQWGAGLLKPSETLSLTCAVYGGSFSGYYWSWIRQPPGKGLEWIGEINHSGKTTYSPSLKSRVTISVDTSKSQFSLKLSSVTAADTAVYYCARQGLNYAIFDYWGQGTLVTVSS VL: not shown
143 ratio | 99 ratio | – | – | – | – | no binding | – | – | – | – | H3M9529N (antibody, mouse IgG3, V domains shown, Mouse IgG3 constant region (H3M)) VH: QVQLQQWGAGLLKPSETLSLTCAVYGGSFSGFYWSWIRQPPGKGLEWIGEINHSGSAKYNPSLKNRVIISIDTSKNQFSLKLDSVTAADTAVYNCARQGWNFAIFDYWGQGTLVDVSS VL: DIVMTQSPDSLAVSLGGRATINCKSSQSVLHSSYNKDHLAWYQQRPGQPPKLLIYWASTRESGVPDRFSGSGSGTDFTLTISSLQAEDVAVYYCQQYNILPPTFGQGTRVEIK
109 ratio | 74 ratio | – | – | – | – | – | – | – | – | – | H1H9529N (antibody, human IgG1, V domains shown, Human IgG1 Fc version) VH: QVQLQQWGAGLLKPSETLSLTCAVYGGSFSGFYWSWIRQPPGKGLEWIGEINHSGSAKYNPSLKNRVIISIDTSKNQFSLKLDSVTAADTAVYNCARQGWNFAIFDYWGQGTLVDVSS VL: DIVMTQSPDSLAVSLGGRATINCKSSQSVLHSSYNKDHLAWYQQRPGQPPKLLIYWASTRESGVPDRFSGSGSGTDFTLTISSLQAEDVAVYYCQQYNILPPTFGQGTRVEIK
30 ratio | 5 ratio | – | – | – | – | – | 4.27 nM | 0.000218 s⁻¹ | 51000 M⁻¹ s⁻¹ | 53 min | H2M7135N (antibody, mouse IgG2, V domains shown, Mouse IgG2 constant region (H2M)) VH: EVQLVESGGGLVQAGGSLRLSCAASGFTFSYHEMNWVRQAPGKGLEWVSYIGSRGTTKHYADPVKGRFTISRDNAKNSLYLQMNSLRAEDTAVYYCASEVGSILGYSMDVWGQGTTVTVSS VL: DIQMTQSPSSLSASVGDRVTITCRASQSVSRYLNWCQQKPGKAPKLLTYAASSLQSGVPSRFSGSGSGTDFTLTISSLQPEDFAAYFCQQSYSTPPITFGQGTRLEIK
